# According to patent US12692513B2, “Prostate neoantigens and their uses” (Janssen Biotech, Inc., priority 2020, dated 2026):
# Tests used:
# [1] = tested on: CD8+ T cells in PBMCs from patients with metastatic castrate-resistant prostate cancer; assay: Patient PBMC restimulation assay (TNFα+IFNγ+ CD8+ T cells); type: cell-based, human; conditions: 9mer peptide
# Protocol: PBMCs from human patients with metastatic castrate-resistant prostate cancer were thawed using media (RPMI 1640 supplemented with Glutamax, 10% HI FBS, and IX Sodium Pyruvate). Cells were counted and plated in a 96 well round bottom microplate at a concentration of 250,000 viable cells per well. Lyophilized peptides were solubilized in 100% DMSO and diluted in media to 10 μg/mL. Neoantigen peptides were added in equal volume to PBMCs for a final concentration of 5 μg/mL. CEF Peptide Pool “Plus” (Cellular Technologies, Ltd.) was utilized as a positive control and DMSO at the same final concentration as the experimental peptides was utilized as a negative control. Human IL-15 (Peprotech) was added to all wells at final concentration of 10 ng/mL.
# Plates were incubated at 37° C. (5% CO2) for a total of 13 days. Media was refreshed every 2 days with IL-15 (10 ng/mL final concentration) and IL-2 (R&D systems, 10 IU/mL final concentration). On day 12, PBMCs were re-stimulated with identical experimental peptides or controls, at same concentration as peptide stimulation on Day 1. After 1-hour incubation, protein Inhibitor Cocktail (eBioscience) was added to every well and plate was incubated overnight.
# On day 13, cells were stained for intracellular flow cytometry analysis. The cells were washed with PBS and stained with Live/Dead Fixable Aqua Dead Cell stain (ThermoFisher). Following the live/dead stain, cells were blocked using Biotin-Free Fc Receptor Blocker (Accurate Chemical & Scientific Corp). Extracellular cellular flow panel (1 μL/antibody per well in 50 μL) consisted of CD3 PerCP-Cy5.5 (Biolegend), CD4 BV421 (Biolegend), and CD8 APC-Cy7 (Biolegend). After extracellular staining, cells were fixed using Foxp3/Transcription Factor Staining Buffer Set (eBioscience) and stained for intracellular proteins (1:50 dilution) using TNFα FITC (R&D Systems) and IFNγ BV785 (Biolegend). Cells were washed and resuspended in stain buffer and analyzed using a BD Celesta flow cytometer.
# Flow cytometry cell staining analysis was completed using Flow Jo v10. Cells were gated on live, singlet, CD3+ cells. The CD8+ T cells were analyzed for TNFα/IFNγ expression and the frequency of double positive TNFα/IFNγ CD8+ T cells was recorded. Responses were assessed to be positive when the frequency of double positive TNFα/IFNγ CD8+ T cells due to stimulation with an experimental peptide was increased greater than or equal to 2-fold over the DMSO only negative control for that patient. Peptides were analyzed in 1 to 7 patient samples.
# The 9 mer fragments shown in Table 13 were assessed for their ability to activate T cells using the Patient PBMC restimulation assay described in Example 1 using TNFα and IFNγ production by CD8^+ T cells as a readout. Self-antigens shown in Table 15 were also used in the assays. […] PBMCs from ten patients were evaluated.
# HLA-A*24:02 = HLA-A*24:02 (Homo sapiens, UniProt P04439, D101N/D140Y/D185E/E176V/E190D/F33S/G103R/G107R/I119L/I121M/I306V/K335N/L105A/L180Q/L300P/N151K/N90K/Q86E/Q94H/R106L/R138H/R89G/T104I/T345S/V100E/W191G/Y123F); assay: In vitro binding to class I MHC (UV peptide exchange, HLA class I ELISA); conditions: 100% = same binding as positive control peptide
# Protocol: (§1) The 9 mer peptides identified by bioinformatics analysis were analyzed for their binding propensities to 6 common HLA class I alleles (HLA-A*01:01, A*02:01, A*03:01, A*24:02, B*07:02, B*08:01). The principle of the method is briefly described below and consists of two parts, one involving exchange of peptide with a positive control induced by Ultraviolet (UV) radiation, and the second is an enzyme immunoassay to detect stable HLA-peptide and empty HLA complexes. HLA-bound peptides are critical for the stability of the HLA complex. A conditional HLA class I complex was stabilized by an UV-labile peptide utilizing a different peptide (Pos) for each HLA (Pos: HLA-A*01:01: […](SEQ ID NO: 409), HLA-A*02:01: […] (SEQ ID NO: 410), HLA-A*03:01: […] (SEQ ID NO: 411), HLA-A*24:02: […] (SEQ ID NO: 412), HLA-B*07:02: […] (SEQ ID NO: 413), HLA-B*08:01: […] (SEQ ID NO: 414), which could be cleaved by UV irradiation when bound to the HLA molecule. Upon cleavage, the resulting peptide fragments dissociated from the HLA class I complex since their length was insufficient to bind stably to HLA. Under the conditions in which peptide cleavage was performed (neutral pH, on melting ice), the peptide-free HLA complex remained stable.
# (§2) The exchange efficiency between the peptide of interest and Pos was analyzed using an HLA class I ELISA. The combined technologies allowed the identification of ligands for an HLA molecule of interest which are potentially immunogenic.
# (§3) Exchange control peptide Pos was a high affinity binder to the relevant HLA class I allele while exchange control peptide Neg was a non-binder. The UV control represented UV-irradiation of conditional HLA class I complex in the absence of a rescue peptide.
# (§4) The HLA class I ELISA is an enzyme immunoassay based on the detection of beta2-microglobulin (B2M) of (peptide-stabilized) HLA class I complexes. To this end streptavidin was bound onto polystyrene microtiter wells. After washing and blocking, HLA complex present in exchange reaction mixtures or ELISA controls was captured by the streptavidin on the microtiter plate via its biotinylated heavy chain. Non-bound material was removed by washing. Subsequently, horseradish peroxidase (HRP)-conjugated antibody to human B2M was added. The HRP-conjugated antibody binds only to an intact HLA complex present in the microtiter well because unsuccessful peptide exchange results in disintegration of the original UV-sensitive HLA complex upon UV illumination. In the latter case B2M was removed during the washing step. After removal of non-bound HRP conjugate by washing, a substrate solution was added to the wells. A colored product formed in proportion to the amount of intact HLA complex present in the samples. After the reaction was terminated by the addition of a stop solution, absorbance was measured in a microtiter plate reader. The absorbance was normalized to the absorbance of an exchange control peptide (represents 100%). Suboptimal HLA binding of peptides with a moderate to low affinity for HLA class I molecules can also be detected by this ELISA technique (Rodenko, B et al. (2006) Nature Protocols 1: 1120-32).
# (§5) Peptides that had 10% or greater exchange efficiency in one of the 6 HLA alleles were considered for further immunogenicity testing and analysis.
# (§6) Binding of select neoepitopes to HLA-A*01:01, HLA-A*02:01, HLA-A*03:01, HLA-A*24:02, HLA-B*07:02 and HLA-B*08:01 was evaluated using the assay described in Example 1. […] As a criterion for further evaluation, peptides with an exchange rate of at least 10% with the corresponding Pos peptide for at least one of the 6 HLA alleles that we considered for further evaluation. The exchange rates with the allele specific Pos peptides, of the 24 neoantigens so identified are summarized below in Table 17. Higher percentages correspond to stronger binding to the HLA allele.
# HLA-A*02:01 = HLA-A*02:01 (Homo sapiens, UniProt P04439, D140Y/D185E/D98H/E176V/E277Q/G131W/G231S/I119V/I121R/I166T/I218V/L300P/L318F/N151K/N90K/P208A/P217A/Q86G/Q94H/R138H/R169H/T345S); assay: as above; conditions: 100% = same binding as positive control peptide
# Protocol: as §1, §2, §3, §4, §5, §6
# HLA-B*07:02 = HLA-B*07:02 (Homo sapiens, UniProt P01889); assay: as above; conditions: 100% = same binding as positive control peptide
# Protocol: as §1, §2, §3, §4, §5, §6
# HLA-B*08:01 = HLA-B*08:01 (Homo sapiens, UniProt P01889, A93T/A95T/D138N/E176V/E187T/K202T/Q94N/R180D/S35A/V36M/Y33D/Y91F); assay: as above; conditions: 100% = same binding as positive control peptide
# Protocol: as §1, §2, §3, §4, §5, §6
# HLA-A*01:01 = HLA-A*01:01 (Homo sapiens, UniProt P04439, A114D/A174V/A182V/D101N/D185E/E176A/E190D/L180R/Q94H/R68K/S129P/T187R/V100A/V91M/W191G); assay: as above; conditions: 100% = same binding as positive control peptide
# Protocol: as §1, §2, §3, §4, §5, §6
# HLA-A*03:01 = HLA-A*03:01 (Homo sapiens, UniProt P04439); assay: as above; conditions: 100% = same binding as positive control peptide
# Protocol: as §1, §2, §3, §4, §5, §6
substance,measurement,setting,value
P98: peptide used for stimulation of PBMC samples (FIG. 5D); sequence in a table not shown (DDRNTFDIVWWCPMSRLRLALTVPPSTTTTCVTVPAWAA; listed as Homo sapiens) [Neoantigen P98],Maximum fold change over negative control,"[1]; TNFα+IFNγ+CD8+ T cells, highest across PBMC donors",14.93
same,Maximum frequency of TNFα+IFNγ+CD8+ T cells (Percent),[1]; greatest frequency among all tested PBMC donors,1.000%
same,"Exchange rate with allele specific Pos peptide, HLA-A*24:02",HLA-A*24:02,−0.1%
same,"Exchange rate with allele specific Pos peptide, HLA-A*02:01",HLA-A*02:01,7.9%
same,"Exchange rate with allele specific Pos peptide, HLA-B*07:02",HLA-B*07:02,6.7%
same,"Exchange rate with allele specific Pos peptide, HLA-B*08:01",HLA-B*08:01,2.4%
same,"Exchange rate with allele specific Pos peptide, HLA-A*01:01",HLA-A*01:01,2.5%
same,"Exchange rate with allele specific Pos peptide, HLA-A*03:01",HLA-A*03:01,51.1%
